These results are taken from article PMC4019986, “Structural and biochemical characterization of the KLHL3–WNK kinase interaction important in blood pressure regulation” (Biochemical Journal, 2014).

One may read the Kd as the equilibrium constant for the complex coming apart.

Where “and” joins values, the source holds several entries; their conditions need not be identical. Identical values can stand only once. Like-named read-outs stand apart in the source and are kept apart here. Ends that are not written are not given here. Peptide text beside a SMILES is read from it. * marks the point of attachment. X1 = N[C@H]1CS[As]2SC[C@H](NC1=O)C(=O)N1CCC[C@H]1C(=O)NCC(=O)N[C@H]1CS[As](SC[C@@H](C(=O)*)NC1=O)c1c(O)ccc3c1Oc1c(ccc(O)c12)C31OC(=O)c2ccccc21 Bounds are passed on as bounds.

The target of assay [1] is T1, GST–KLHL3^290–587 (Homo sapiens, UniProt Q9UH77).
T1 construct: the isolated C-terminal Kelch domain (residues 290–587); made in house; host or cells: E. coli BL21
T1 sequence (Q9UH77 290-587): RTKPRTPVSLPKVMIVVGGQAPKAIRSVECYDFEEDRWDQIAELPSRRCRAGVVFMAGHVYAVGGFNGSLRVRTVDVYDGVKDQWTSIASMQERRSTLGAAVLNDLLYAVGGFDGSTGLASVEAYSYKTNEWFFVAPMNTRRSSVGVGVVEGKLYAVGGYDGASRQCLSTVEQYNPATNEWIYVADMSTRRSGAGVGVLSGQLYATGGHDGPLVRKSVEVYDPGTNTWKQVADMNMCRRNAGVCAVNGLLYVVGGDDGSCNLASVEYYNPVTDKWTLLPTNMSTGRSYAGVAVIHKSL
As to the kind of experiment: Fluorescence polarization binding of Lumio-Green-labelled degron peptides to the KLHL3 Kelch domain. (In general: Fluorescence polarisation rises when a labelled molecule tumbles more slowly, as on binding a larger partner.)

Assay [2] deals with core 11-residue WNK4 peptide (WNK4 WT 557–567), Lumio-Green-labelled. As to the kind of experiment: fluorescence polarisation; Kelch protein titrated against 10 nM Lumio-Green-labelled peptide; 25°C; 50 mM Tris/HCl pH 7.5, 150 mM NaCl, 2 mM DTT; one-site specific binding with Hill slope; duplicates, at least 12 points per curve.
Assay [3] concerns the target T2, KEAP1 full-length protein (residues 1–624) (UniProt Q14145 1-624).
T2 construct: KEAP1, NM_203500.1, amplified from EST IMAGE 3163902, residues 1-624; NM_203500.1 is a human transcript as far as I recall; also called Kelch-like enoyl-CoA hydratase-associated protein 1; source: Sf21 cells, purified (ampicillin–Sepharose, TEV protease release, size-exclusion chromatography); not shown: DAC, N-terminal, cleaved
The assay is described as above. The following applies: both partners purified.

Assay [4] concerns the target T3, GST–KLHL3^290–587 (human, UniProt Q9UH77-1 290-587).
T3 construct: KLHL3, human, NM_017415.2, C-terminal Kelch domain, residues 290-587; pGEX6P-1, PreScission site between GST and KLHL3; eluted with glutathione as the GST fusion; also called isolated KLHL3 Kelch domain; GST-KLHL3 290-587 wild-type; source: E. coli BL21, purified (glutathione–Sepharose); not shown: GST, N-terminal, kept
T3 sequence (looked up): T1 sequence (Q9UH77 290-587)
The assay is described as above. The following applies: both partners purified.

Assay [5] has as its target T4, human KLHL2 Kelch domain (residues 294–593) (human, UniProt O95198 294-593).
T4 construct: KLHL2, human, IMAGE clone 4791972, Kelch domain, residues 294-593; Vector pNIC28-Bsa4 (GenBank EF198106); The results speak of unmodelled residues 292–305, which lie partly before the stated limit; also called KLHL2 (crystallization construct); Mayven; source: E. coli BL21(DE3)-R3-pRARE, purified (Ni-Sepharose, rTEV cleavage, HiTrap SP, Superdex 200); not shown: His6, N-terminal, cleaved
T4 sequence (looked up): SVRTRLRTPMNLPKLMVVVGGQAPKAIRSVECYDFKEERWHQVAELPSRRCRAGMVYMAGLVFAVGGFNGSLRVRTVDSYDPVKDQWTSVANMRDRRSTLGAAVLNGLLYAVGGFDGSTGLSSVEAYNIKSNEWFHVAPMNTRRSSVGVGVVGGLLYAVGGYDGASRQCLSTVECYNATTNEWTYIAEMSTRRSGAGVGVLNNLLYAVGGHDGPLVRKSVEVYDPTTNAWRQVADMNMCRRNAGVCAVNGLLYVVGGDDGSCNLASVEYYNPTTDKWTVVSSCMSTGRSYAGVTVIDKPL
As to the kind of experiment: crystal structure; KLHL2 Kelch domain (9 mg/ml) with 2 mM WNK4 11-mer peptide; sitting drop, 20°C, 0.1 M Hepes pH 7.2, 2.5 M ammonium sulfate, 2% PEG 400. The conditions noted are these: both partners purified.

Assay [6] concerns the target T5, human KLHL3 Kelch domain (residues 298–587) (human, UniProt Q9UH77-1 298-587).
T5 construct: KLHL3, human, NM_017415.2, Kelch domain, residues 298-587; Vector pNIC28-Bsa4 (GenBank EF198106); The results speak of unmodelled residues 296–299, which lie partly before the stated limit; also called KLHL3 (crystallization construct); source: E. coli BL21(DE3)-R3-pRARE, purified (Ni-Sepharose, rTEV cleavage, HiTrap Q, Superdex 200); not shown: His6, N-terminal, cleaved
T5 sequence (looked up): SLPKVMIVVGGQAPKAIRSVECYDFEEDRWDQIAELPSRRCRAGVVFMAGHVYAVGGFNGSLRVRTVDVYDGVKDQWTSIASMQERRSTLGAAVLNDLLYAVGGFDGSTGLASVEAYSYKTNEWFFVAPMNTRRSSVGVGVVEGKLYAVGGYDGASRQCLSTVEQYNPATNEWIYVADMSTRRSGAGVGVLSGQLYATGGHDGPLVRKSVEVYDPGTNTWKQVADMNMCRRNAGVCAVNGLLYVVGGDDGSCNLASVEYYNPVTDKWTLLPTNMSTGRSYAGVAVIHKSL
The assay can be described thus: crystal structure; KLHL3 Kelch domain (9 mg/ml) with 2 mM WNK4 11-mer peptide; sitting drop, 0.1 M acetate pH 4.3, 0.2 M ammonium sulfate, 25–35% PEG 4000. The following applies: both partners purified.

The mark [7] stands for this setting: disease-causing mutation within the WNK4 degron peptide, Figure 1C.

T2 sequence (Q14145 whole entry, the tested form may be a part): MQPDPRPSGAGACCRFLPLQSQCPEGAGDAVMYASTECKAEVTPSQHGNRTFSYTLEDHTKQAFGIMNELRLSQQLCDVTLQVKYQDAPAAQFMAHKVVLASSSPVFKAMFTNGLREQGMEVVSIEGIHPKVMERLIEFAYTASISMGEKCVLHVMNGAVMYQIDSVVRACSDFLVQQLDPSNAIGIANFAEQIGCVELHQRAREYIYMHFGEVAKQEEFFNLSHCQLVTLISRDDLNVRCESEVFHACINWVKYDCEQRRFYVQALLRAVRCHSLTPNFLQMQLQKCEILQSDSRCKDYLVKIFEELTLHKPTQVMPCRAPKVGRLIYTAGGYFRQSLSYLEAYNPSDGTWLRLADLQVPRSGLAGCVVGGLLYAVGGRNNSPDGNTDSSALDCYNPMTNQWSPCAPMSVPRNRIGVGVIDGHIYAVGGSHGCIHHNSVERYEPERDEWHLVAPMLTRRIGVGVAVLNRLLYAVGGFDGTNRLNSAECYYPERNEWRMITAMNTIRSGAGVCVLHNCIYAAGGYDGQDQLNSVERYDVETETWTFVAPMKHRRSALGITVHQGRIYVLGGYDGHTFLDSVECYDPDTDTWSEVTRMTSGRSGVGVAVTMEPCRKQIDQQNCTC

In the case of “WNK4 E562K 549–567: 19-residue WNK4 degron peptide with Gordon's syndrome mutation E562K, Lumio Green labelled (GPPSVFPPEPEEPKADQHQ; not fully specified (N-terminus); also: Lumio Green fluorophore on N-terminal linker CCPGCCGGGG)”, the “binding to KLHL3 in words” value with GST–KLHL3^290–587 [1] (setting [7]) was “virtually abolished binding”. “WNK4 D564A 549–567: 19-residue WNK4 degron peptide with Gordon's syndrome mutation D564A, Lumio Green labelled (GPPSVFPPEPEEPEAAQHQ; not fully specified (N-terminus); also: Lumio Green fluorophore on N-terminal linker CCPGCCGGGG)”: the “reduction in binding relative to wild-type WNK4 degron peptide” value in the assay with GST–KLHL3^290–587 [1] (setting [7]) was 10 fold. Turning to “GST–KLHL2^298–593 (from UniProt O95198 298-593) (domain or fragment)”, the equilibrium dissociation constant (Kd) in assay [2] is 260 nM.

Turning to `CC(C)[C@H](NC(=O)[C@H](CO)NC(=O)[C@@H]1CCCN1C(=O)[C@@H]1CCCN1C(=O)CNC(=O)CNC(=O)CNC(=O)CNC(=O)CNC(=O)[C@@H]1CS[As]2SC[C@H](NC(=O)CNC(=O)[C@@H]3CCCN3C(=O)[C@@H]3CS[As](SC[C@H](N)C(=O)N3)c3c(O)ccc4c3Oc3c(ccc(O)c32)C42OC(=O)c3ccccc32)C(=O)N1)C(=O)N[C@@H](Cc1ccccc1)C(=O)N1CCC[C@H]1C(=O)N1CCC[C@H]1C(=O)N[C@@H](CCC(=O)O)C(=O)N1CCC[C@H]1C(=O)N[C@@H](CCC(=O)O)C(=O)N[C@@H](CCC(=O)O)C(=O)N1CCC[C@H]1C(=O)N[C@@H](CCC(=O)O)C(=O)N[C@@H](C)C(=O)N[C@@H](CC(=O)O)C(=O)N[C@@H](CCC(=O)O)C(=O)N[C@@H](Cc1cnc[nH]1)C(=O)N[C@@H](CCC(N)=O)C(=O)O` (stereo partly shown) [WNK4 Q565E 549–567] (X1-GGGGGPPSVFPPEPEEPEADEHQ-OH; N-terminus and C-terminus assumed), at GST–KLHL3^290–587 [1], the “reduction in binding relative to wild-type WNK4 degron peptide” value is 10 fold.

B1: core 11-residue WNK4 peptide (WNK4 WT 557–567), Lumio-Green-labelled (peptide)
peptide: EPEEPEADQHQ
modifications: not fully specified (N-terminus); also: Lumio Green fluorophore on N-terminal linker CCPGCCGGGG
notes: WNK4 acidic degron, residues 557-567; also called WNK1/4 degron; 11-residue WNK4 (557–567) degron peptide; source: synthetic peptide (GL Biochem)
Regarding B1, the equilibrium dissociation constant (Kd) in assay [3] is above 50000 nM; with GST–KLHL3^290–587 [4], 690 nM and 350 nM and 510 nM.

B2: 11-residue WNK4 peptide (EPEEPEADQHQ) used for crystallization (peptide)
peptide: EPEEPEADQHQ
notes: WNK4 acidic degron, residues 557-567; the sentence 'All peptides contained an N-terminal linker' stands in the fluorescence polarization methods; also called WNK4 11-mer peptide; 11-residue WNK4 degron motif; source: synthetic peptide (GL Biochem)
B2: the binding result in assay [5] and in assay [6] was “binds” each time.

B3: NRF2 degron peptide (NRF2 WT 74–84) (peptide)
peptide: CCPGCCGGGGLQLDEETGEFL
modifications: cysteine pairing not given here; also: Lumio Green fluorophore on N-terminal linker CCPGCCGGGG
notes: nuclear factor-erythroid 2-related factor 2 (NRF2), degron motif, residues 74-84; also called NRF2 degron motif; source: synthetic peptide (GL Biochem)
B3 returned a Kd in the assay with GST–KLHL3^290–587 [4] above 50000 nM.

B4: WNK4 WT 555–567 peptide (peptide)
peptide: PPEPEEPEADQHQ
modifications: not fully specified (N-terminus); also: Lumio Green fluorophore on N-terminal linker CCPGCCGGGG
notes: WNK4 acidic degron, residues 555-567; source: synthetic peptide (GL Biochem)
In the assay with GST–KLHL3^290–587 [4], B4 yielded an equilibrium dissociation constant (Kd) of 910 nM.

B5: WNK4 E562K 549–567 peptide (peptide)
peptide: GPPSVFPPEPEEPKADQHQ
modifications: not fully specified (N-terminus); also: Lumio Green fluorophore on N-terminal linker CCPGCCGGGG
notes: source: synthetic peptide (GL Biochem)
The molecule B5 returned a Kd with GST–KLHL3^290–587 [4] above 50000 nM.

B6: WNK4 WT 554–566 peptide (peptide)
peptide: FPPEPEEPEADQH
modifications: not fully specified (N-terminus); also: Lumio Green fluorophore on N-terminal linker CCPGCCGGGG
notes: WNK4 acidic degron, residues 554-566; source: synthetic peptide (GL Biochem)
In the assay with GST–KLHL3^290–587 [4], B6 showed a dissociation constant Kd of 7810 nM.

B7: WNK4 WT 554–567 peptide (peptide)
peptide: FPPEPEEPEADQHQ
modifications: not fully specified (N-terminus); also: Lumio Green fluorophore on N-terminal linker CCPGCCGGGG
notes: WNK4 acidic degron, residues 554-567; source: synthetic peptide (GL Biochem)
Regarding B7, in the assay with GST–KLHL3^290–587 [4], the equilibrium dissociation constant (Kd) came to 710 nM.

B8: WNK4 WT 554–564 peptide (peptide)
peptide: FPPEPEEPEAD
modifications: not fully specified (N-terminus); also: Lumio Green fluorophore on N-terminal linker CCPGCCGGGG
notes: WNK4 acidic degron, residues 554-564; source: synthetic peptide (GL Biochem)
In turn, B8 showed an equilibrium dissociation constant (Kd) with GST–KLHL3^290–587 [4] above 50000 nM.

B9: WNK4 Q565E 549–567 peptide (peptide)
peptide: GPPSVFPPEPEEPEADEHQ
modifications: not fully specified (N-terminus); also: Lumio Green fluorophore on N-terminal linker CCPGCCGGGG
notes: as for B5
For B9, in the assay with GST–KLHL3^290–587 [4], the Kd is 6210 nM.

B10: WNK4 D564A 549–567 peptide (peptide)
peptide: GPPSVFPPEPEEPEAAQHQ
modifications: not fully specified (N-terminus); also: Lumio Green fluorophore on N-terminal linker CCPGCCGGGG
notes: as for B5
As to B10, the dissociation constant Kd in the assay with GST–KLHL3^290–587 [4] is above 50000 nM.

B11: WNK4 WT 556–567 peptide (peptide)
peptide: PEPEEPEADQHQ
modifications: not fully specified (N-terminus); also: Lumio Green fluorophore on N-terminal linker CCPGCCGGGG
notes: WNK4 acidic degron, residues 556-567; source: synthetic peptide (GL Biochem)
In the assay with GST–KLHL3^290–587 [4], B11 gave an equilibrium dissociation constant (Kd) of 290 nM. In other words, the sub-micromolar range.

B12: WNK3 degron peptide (WNK3 WT 537–547) (peptide)
peptide: ECEETEVDQHV
modifications: not fully specified (N-terminus); also: Lumio Green fluorophore on N-terminal linker CCPGCCGGGG
notes: also called WNK3 motif; source: synthetic peptide (GL Biochem)
For B12, the dissociation constant (Kd) was above 50000 nM in assay [3] and 840 nM with GST–KLHL3^290–587 [4].
